Data on 8 molecules can be found in PMC4409382, “Structural Analysis of the 14-3-3ζ/Chibby Interaction Involved in Wnt/β-Catenin Signaling” (PLoS ONE, 2015).

Changes are numbered by the printed parent chain. Numbers in names are those of the source. Square brackets hold non-standard residues; d marks the D form. Ends that are not written are not given here. pS = N[C@@H](COP(=O)(O)O)C(=O)O

T1: Chibby 11-mer (Homo sapiens, UniProt Q9Y3M2)
T1 chain: H-KTPPRKSA[pS]LS-NH2

T2: Chibby 13-mer S22P (Homo sapiens, UniProt Q9Y3M2)
T2 chain: KTPPRKSASLPNL

T3: Chibby 18-mer L24A (Homo sapiens, UniProt Q9Y3M2)
T3 chain: KTPPRKSASLSNAHSLDR

T4: Chibby 13-mer (Homo sapiens, UniProt Q9Y3M2)
T4 chain: KTPPRKSA[pS]LSNL

T5: Chibby 7-mer (Homo sapiens, UniProt Q9Y3M2)
T5 chain: Ac-RKSA[pS]LS-NH2

T6: Chibby 18-mer (Homo sapiens, UniProt Q9Y3M2)
T6 chain: KTPPRKSA[pS]LSNLHSLDR

T7: Chibby 7-mer S22P (Homo sapiens, UniProt Q9Y3M2)
T7 chain: RKSASLP

T8: 14-3-3ζΔC12 (human, UniProt P63104 1-233)
T8 construct: N-terminal glycine retained after TEV cleavage of the His tag; 14-3-3ζ, human, full-length construct with the 12 C-terminal residues deleted; Unlabelled for ITC; 15N, 13C, 2H labelled for the NMR titrations; also called 14-3-3ζ with the C-terminal 12 residues removed; source: E. coli BL21 (DE3) pLysS, purified (Ni Sepharose, TEV cleavage, second Ni Sepharose pass); not shown: His tag, N-terminal, …
T8 sequence: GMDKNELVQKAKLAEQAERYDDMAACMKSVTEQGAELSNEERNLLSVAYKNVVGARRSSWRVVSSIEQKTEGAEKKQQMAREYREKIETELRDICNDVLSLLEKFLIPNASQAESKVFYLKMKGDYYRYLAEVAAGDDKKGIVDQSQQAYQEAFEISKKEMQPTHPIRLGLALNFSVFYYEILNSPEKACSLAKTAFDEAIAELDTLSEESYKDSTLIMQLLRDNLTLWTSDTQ

T9: 14-3-3ζ K49A (human, UniProt P63104 1-245, K49A)
T9 construct: N-terminal glycine retained after TEV cleavage of the His tag; 14-3-3ζ, human, with the K49A mutation introduced into 14-3-3ζ; source: purified by Ni Sepharose with TEV cleavage as all 14-3-3ζ constructs; not shown: His tag, N-terminal, cleaved
T9 sequence: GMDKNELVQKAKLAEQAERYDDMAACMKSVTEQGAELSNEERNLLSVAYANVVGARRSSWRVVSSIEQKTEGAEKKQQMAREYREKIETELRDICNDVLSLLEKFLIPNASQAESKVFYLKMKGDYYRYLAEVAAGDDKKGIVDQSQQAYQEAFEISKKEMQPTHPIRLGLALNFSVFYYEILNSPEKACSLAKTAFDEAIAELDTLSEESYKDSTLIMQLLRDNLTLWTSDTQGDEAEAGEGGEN

T10: 14-3-3ζΔC12 (human, UniProt P63104 1-233)
T10 construct: N-terminal glycine retained after TEV cleavage of the His tag; 14-3-3 zeta, human, full-length 14-3-3ζ with the 12 C-terminal residues deleted; source: E. coli BL21 (DE3) pLysS, purified (Ni Sepharose, TEV cleavage, second Ni Sepharose pass); not shown: His tag, N-terminal, cleaved
T10 sequence: T8 sequence

T11: 14-3-3ζ (human, UniProt P63104 1-245)
T11 construct: N-terminal glycine retained after TEV cleavage of the His tag; 14-3-3 zeta, human, ORF purchased from GeneCopoeia, full-length construct; Dimer (~56 kDa); the stoichiometry n counts on the 14-3-3 monomer; also called full-length 14-3-3ζ; source: E. coli BL21 (DE3) pLysS, purified (Ni Sepharose, TEV cleavage, second Ni Sepharose pass); not shown: His tag, N-terminal, cleaved
T11 sequence: T9 sequence with A50K

T12: 14-3-3ζ K49A (human, UniProt P63104 1-245, K49A)
T12 construct: N-terminal glycine retained after TEV cleavage of the His tag; 14-3-3 zeta, human, with the K49A mutation introduced into 14-3-3ζ (the full-length construct); they say that all 14-3-3ζ constructs were purified in the same way; source: E. coli, purified (Ni Sepharose, TEV cleavage, second Ni Sepharose pass); not shown: His tag, N-terminal, cleaved
T12 sequence: T9 sequence

B1: 14-3-3ζ (protein)
chain: MDKNELVQKAKLAEQAERYDDMAACMKSVTEQGAELSNEERNLLSVAYKNVVGARRSSWRVVSSIEQKTEGAEKKQQMAREYREKIETELRDICNDVLSLLEKFLIPNASQAESKVFYLKMKGDYYRYLAEVAAGDDKKGIVDQSQQAYQEAFEISKKEMQPTHPIRLGLALNFSVFYYEILNSPEKACSLAKTAFDEAIAELDTLSEESYKDSTLIMQLLRDNLTLWTSDTQGDEAEAGEGGEN
B2: 14-3-3ζ (human, full-length) (natural protein)
chain: T9 sequence with A50K
notes: N-terminal glycine retained after TEV cleavage of the His tag; 14-3-3ζ, human, ORF bought from GeneCopoeia, in Gateway pDEST17; full-length; Dimer in the crystal; the ITC stoichiometry counts on the 14-3-3 monomer; also called WT 14-3-3ζ; source: E. coli BL21 (DE3) pLysS, purified (Ni Sepharose, TEV cleavage, second Ni Sepharose pass); not shown: His tag, N-terminal, cleaved
B3: pCby 18-mer (peptide)
peptide: KTPPRKSA[pS]LSNLHSLDR
notes: Chibby (Cby), human, residues 12-29; free NH2 and COOH ends; also called Cby 18-mer WT; WT Cby 18-mer; source: synthetic peptide, bought: GenScript USA Inc
B4: pCby S22P 18-mer (peptide)
peptide: KTPPRKSA[pS]LPNLHSLDR
notes: Chibby (Cby), human, residues 12-29 with S22P; free NH2 and COOH ends; also called Cby 18-mer S22P; source: synthetic peptide, bought: TUFTS University Core Facility
B5: pCby 13-mer (peptide)
peptide: KTPPRKSA[pS]LSNL
notes: Chibby (Cby), human, residues 12-24; source: synthetic peptide, bought: GenScript USA Inc
B6: pCby 13-mer (peptide)
peptide: KTPPRKSA[pS]LSNL
notes: Chibby (Cby), human, residues 12-24; free NH2 and COOH ends; also called phosphorylated Cby peptide; source: synthetic peptide, bought: GenScript USA Inc
B7: pCby 18-mer (peptide)
peptide: KTPPRKSA[pS]LSNLHSLDR
notes: Chibby (Cby), human, residues 12-29; also called Cby 18-mer WT; source: synthetic peptide, bought: GenScript USA Inc
B8: pCby S22P 18-mer (peptide)
peptide: KTPPRKSA[pS]LPNLHSLDR
notes: Chibby (Cby), human, residues 12-29 with S22P; also called Cby 18-mer S22P; source: synthetic peptide, bought: TUFTS University Core Facility

One data set concerns the target T1, Chibby 11-mer. Description: ITC.
A further data set has as its target T2, Chibby 13-mer S22P. As to the kind of experiment: ITC.
A further data set deals with T3, Chibby 18-mer L24A. Description: ITC.
The next data set deals with T4, Chibby 13-mer. As to the kind of experiment: ITC.
The next data set deals with T5, Chibby 7-mer. As to the kind of experiment: ITC.
In a further data set the target is T6, Chibby 18-mer. As to the kind of experiment: ITC.
For a further data set, the target named is T7, Chibby 7-mer S22P. Description: ITC.
Data set [1] deals with the molecule itself. Description: crystal structure; 14-3-3ζ (10 mg/mL) co-crystallised with the phosphorylated Cby 18-mer (protein:peptide 1:4), 20 mM Tris pH 7.5, 100 mM NaCl; reservoir 200 mM NH4HCO2, 16-20% PEG 3350; 4°C; 2.41 Å.
In data set [2] the target is T8, 14-3-3ζΔC12. As to the kind of experiment: ITC; VP-ITC, 25°C; ~1-2 mM peptide titrated in 5 uL aliquots into ~100-200 uM 14-3-3ζ in the cell; 50 mM sodium phosphate, 100 mM NaCl, 1 mM DTT, pH 6.8; one-site model; in duplicate. The conditions noted are these: both partners purified.
In data set [3] the target is T9, 14-3-3ζ K49A. The description is as above. Particulars: both partners purified.
The target in data set [4] is B2. Described as above. Particulars: both partners purified.
In data set [5] the target is T10, 14-3-3ζΔC12. Description: ITC; duplicate set of titrations; 5 uL aliquots of ~1-2 mM peptide titrated into the 1.4 mL cell with ~100-200 uM 14-3-3ζ; 25 °C; 50 mM sodium phosphate, 100 mM NaCl, 1 mM DTT, pH 6.8; one-site model; n per 14-3-3 monomer. The conditions noted are these: both partners purified.
A further data set addresses T11, 14-3-3ζ. Described as above. The conditions noted are these: both partners purified.
For data set [6], the target named is T12, 14-3-3ζ K49A. The description is as above. The conditions noted are these: both partners purified.

Regarding B1, the dissociation constant Kd was about 18 µM with Chibby 11-mer; about 1 µM with Chibby 13-mer S22P; about 21 µM with Chibby 18-mer L24A; about 15 µM in the data set with Chibby 13-mer; about 44 µM in the data set with Chibby 7-mer; about 5 µM in the data set with Chibby 18-mer. The Kd with Chibby 7-mer S22P was about 3 µM.
With B2, the binding result in data set [1] is “binds”.
Consider B3, for which, in the data set with 14-3-3ζΔC12 [2], the affinity, expressed as Kd, was 6.8 µM; the dH was -3.35 ± 0.06 kcal/mol; the “stoichiometry N” value is 1.04. In the data set with 14-3-3ζ K49A [3], the Kd was determined as 3.8 µM, the dH was -4.16 ± 0.05 kcal/mol and the “stoichiometry N” value amounted to 1.01. In data set [4], the Kd amounted to 4.6 µM, the dH was -4.35 ± 0.05 kcal/mol and the “stoichiometry N” value is 0.96.
With B4, in the data set with 14-3-3ζ K49A [3], the Kd was found to be 1.9 µM, the dH was -7.13 ± 0.03 kcal/mol and the “stoichiometry N” value was 1.07. Moreover, in [4], binding was put at a Kd of 0.36 µM, the dH was -8.03 ± 0.02 kcal/mol and the “stoichiometry N” value is 1.05.
For B5, in the data set with 14-3-3ζΔC12 [5], the Kd was 14.5 µM and the “stoichiometry N” value amounted to 1.06.
As to B6, in the data set with 14-3-3ζΔC12 [2], binding was characterised by a dissociation constant (Kd) of 14.9 µM, the dH is -2.08 ± 0.03 kcal/mol and the “stoichiometry N” value came to 0.99.
On to B7, for which the Kd with 14-3-3ζ is 4.9 µM; with 14-3-3ζ K49A [6], 5.5 µM; with 14-3-3ζΔC12 [5] it was 8.5 µM. The “stoichiometry N” value came to 0.94 with 14-3-3ζ, 1.07 in the data set with 14-3-3ζ K49A [6] and 1.02 with 14-3-3ζΔC12 [5].
Take B8: the values for the Kd with 14-3-3ζ and with 14-3-3ζ K49A [6] were 0.38 µM and 1.8 µM, respectively. Further, the “stoichiometry N” value with 14-3-3ζ was determined as 1.08; with 14-3-3ζ K49A [6], 0.97.
